Paper PMC3029386

Tests used:
[1] = molecular target: DevR (full-length) (Mycobacterium tuberculosis) (UniProt P9WMF9); test: DNase I footprinting
[2] = molecular target: DevRC (DevR C-terminal domain) (Mycobacterium tuberculosis H37Rv) (UniProt P9WMF9); test: DNase I footprinting
DevRC (DevR C-terminal domain) (Mycobacterium tuberculosis H37Rv), sequence (P9WMF9 141-217): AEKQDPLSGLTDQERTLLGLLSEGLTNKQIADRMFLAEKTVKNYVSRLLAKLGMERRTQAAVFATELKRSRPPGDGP

DevR (full-length) (Mycobacterium tuberculosis), sequence (P9WMF9 whole entry, the tested form may be a part): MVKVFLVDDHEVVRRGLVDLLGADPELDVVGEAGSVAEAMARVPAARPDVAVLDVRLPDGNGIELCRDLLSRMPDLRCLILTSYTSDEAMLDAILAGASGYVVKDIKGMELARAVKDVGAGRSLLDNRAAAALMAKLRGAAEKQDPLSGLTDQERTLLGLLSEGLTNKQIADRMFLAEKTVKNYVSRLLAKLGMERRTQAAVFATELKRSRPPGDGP

TGGCTGCCGGGCCTTTCCCATCAACGGCTGCGGTCATCTATTAAGGATCGCGCGTCGACAGCCGCGGTGGCAGAGCACGAAGGCTCGCCAGCGGAGGACCTTTGGCCCTGCCTCAACGGCTCCTCGCAGCGGAGAGTGGTACTGACGGTTGCAGATAATCCGGATCACCGGGGAAGGCGCTGACCATG (double strand) [tgs1-Rv3131 intergenic DNA (3130F/3131R)]
binding [1]: binds
binding [2]: binds
